1 molecule from patent US20200369755A1 (PROTHENA BIOSCIENCES, published 2020) can be followed below.

Where no end group is shown, it is not given here.

The target in test [1] is biotinylated recombinant tau (UniProt P10636-6 1-383, limits assumed, biotinylated). Description: competition ELISA: inhibition of biotinylated tau binding to plate-bound low molecular weight heparin. Here is the method: To test the ability of murine and humanized 3D6 variants to interrupt tau interaction with heparin, ELISA plates coated with low molecular weight heparin were first blocked with 2% BSA in PBS for 2h at room temperature. Plates were washed with TBST. After blocking, plates were incubated with biotinylated recombinant tau along with indicated concentrations of unlabeled antibody in 1% BSA/PBS for one hour at room temperature. Plates were again washed, and then incubated with streptavidin-HRP in 0.1% BSA/PBS for 45 min. Plates were then washed and developed with OPD, and absorbance was measured at 490 nm. Inhibition curves were analyzed using a 4-parameter log fit.
Sequence of biotinylated recombinant tau (P10636 other isoform, or with tags, fused parts or gaps limits assumed): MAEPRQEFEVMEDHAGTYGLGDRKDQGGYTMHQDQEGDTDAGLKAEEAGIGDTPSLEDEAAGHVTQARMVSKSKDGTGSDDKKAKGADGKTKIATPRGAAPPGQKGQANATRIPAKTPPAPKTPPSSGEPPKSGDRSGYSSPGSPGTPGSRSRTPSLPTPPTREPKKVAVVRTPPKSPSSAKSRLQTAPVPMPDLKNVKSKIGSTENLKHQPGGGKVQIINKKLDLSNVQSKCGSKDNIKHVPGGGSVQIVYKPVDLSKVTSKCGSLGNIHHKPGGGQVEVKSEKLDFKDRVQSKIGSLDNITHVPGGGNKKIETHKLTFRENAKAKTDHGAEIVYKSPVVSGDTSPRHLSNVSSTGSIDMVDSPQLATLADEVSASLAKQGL
(An ELISA detects its analyte on a solid surface through an enzyme-linked reagent.)

In the next test the target is T1, 235-249 (also: biotinylated, site not given here).
T1 construct: also called tau peptide 235-249 (4R0N numbering)
T1 peptide: SKDNIKHVPGGGSVQ
Description: peptide ELISA, biotinylated peptide on streptavidin plate; background-subtracted absorbance; positive from 0.2. The protocol:
(§1) Additional peptides were used to model potential post-translational modifications of the C- and N-terminal ends of the protein.
(§2) Biotinylated peptides were bound to separate wells of a streptavidin-coated ELISA plate. The plate was blocked and treated with murine 3D6, followed by incubation with a horseradish peroxidase-conjugated anti-mouse antibody. After thorough washing, OPD was applied to the plate and allowed to develop. The plate was read at 450 nm absorbance. Background subtraction was performed with absorbance values from wells containing no primary antibody, and a threshold for positive binding was set to 0.2 absorbance units. […] (FIG. 1)

Test [2] concerns the target T2, 369-383 (amidated C-term) (also: biotinylated, site not given here).
T2 peptide: TLADEVSASLAKQGL-NH2
The test is described as above. The protocol:
as §1, §2

In the next test the target is T3, 253-267 (also: biotinylated, site not given here).
T3 construct: also called tau peptide 253-267 (4R0N numbering)
T3 peptide: KPVDLSKVTSKCGSL
Described as above. Here is the method:
as §1, §2

A further test deals with T4, 1-15* (free N-term) (also: biotinylated (site not given here)).
T4 construct: also called tau peptide 1-15 (4R0N numbering), free N-terminus
T4 peptide: H-MAEPRQEFEVMEDHA
The test is described as above. The protocol:
as §1, §2

A further test concerns the target T5, 145-159 (also: biotinylated, site not given here).
T5 peptide: PGTPGSRSRTPSLPT
Described as above. The protocol: as §1, §2

A further test has as its target T6, 208-222 (also: biotinylated, site not given here).
T6 construct: also called tau peptide 208-222 (4R0N numbering)
T6 peptide: LKHQPGGGKVQIINK
The test is described as above. Here is the method:
as §1, §2

A further test deals with T7, 369-383 (free C-term) (also: biotinylated, site not given here).
T7 peptide: TLADEVSASLAKQGL-OH
Described as above. Here is the method: as §1, §2

The next test deals with T8, 118-132 (also: biotinylated, site not given here).
T8 peptide: PPAPKTPPSSGEPPK
Described as above. Here is the method: as §1, §2

The target in another test is T9, 325-339 (also: biotinylated, site not given here).
T9 construct: also called tau peptide 325-339 (4R0N numbering)
T9 peptide: KAKTDHGAEIVYKSP
The test is described as above. Here is the method:
as §1, §2

Another test concerns the target T10, 136-150 (also: biotinylated, site not given here).
T10 construct: also called tau peptide 136-150 (4R0N numbering)
T10 peptide: RSGYSSPGSPGTPGS
The test is described as above. The protocol:
as §1, §2

The next test deals with T11, recombinant human tau (human, UniProt P10636-6 1-383, limits assumed).
T11 construct: also called human recombinant tau without polyhistidine tag; native, untagged protein
T11 sequence (P10636 other isoform, or with tags, fused parts or gaps limits assumed): as above
As to the kind of experiment: SPR (Biacore T200): antibody captured on an anti-mouse chip, recombinant human tau 10-0.14 nM as analyte, global 1:1 fit. Here is the method: Methods: SPR analysis was performed using a Biacore T200 to determine the binding kinetics of murine antibodies to recombinant human tau. To prepare a sensor surface, anti-mouse antibody (GE Life Sciences) was immobilized on sensor chip CM5 via amine coupling, and antibody was captured at a level to ensure maximum binding of 50 RU. Various concentrations of recombinant tau ranging from 10-0.14 nM were passed over the captured ligand at a flow rate of 50 μL/min in running buffer (HBS+0.05% P-20, 1 mg/mL BSA), for 180 sec association and 900 sec dissociation. Data were double-referenced to both an irrelevant sensor not containing antibody ligand, and 0 nM analyte concentration to account for the dissociation of ligand from the capture moiety. Data was then analyzed using a global 1:1 fit.

For test [3], the target named is T12, tau peptide NVKSKIGSTENLKHQPG (SEQ ID NO:184) (human).
T12 construct: Printed on a microarray together with all its single substitution variants; also called probe peptide
T12 peptide: NVKSKIGSTENLKHQPG
As to the kind of experiment: peptide microarray, 3D6 at 10 ug/ml. Here is the method: The assay exchanged each of the amino acids in the peptide sequence with all 20 amino acids, to determine with a high degree of accuracy the core epitope for 3D6. The microarray was printed with all peptides in triplicate, along with HA control peptides to ensure assay performance. To perform the assay, the array was incubated with 3D6 (10 ug/ml) in blocking buffer, washed with PBS-T, followed by incubation with a goat anti-mouse secondary antibody conjugated to DyLight-680. In addition, the microarray was incubated with anti-HA antibody 12CA5 directly conjugated to DyLight-800. Microarrays were scanned using a LiCor scanner, and intensities of triplicates were averaged.

In test [4] the target is T13, biotinylated tau peptide, amino acid residues 199-213 of SEQ ID NO:3 (human, also: biotinylated, site not given here).
T13 construct: One of the overlapping peptides spanning 4R0N human tau
T13 peptide: KSKIGSTENLKHQPG
Description: peptide ELISA, epitope mapping of hybridoma positives. Here is the method: as §1, §2

In test [5] the target is T14, biotinylated tau peptide, amino acid residues 262-276 of SEQ ID NO:3 (human, also: biotinylated, site not given here).
T14 construct: One of the overlapping peptides spanning 4R0N human tau
T14 peptide: SKCGSLGNIHHKPGG
The test is described as above. Here is the method:
as §1, §2

B1: murine 3D6 monoclonal antibody (antibody, IgG1, V domains shown)
VH: EVQLQQSGADLVRPGALVKLSCKASGFNIKDYYLHWVRQRPEQGLEWIGWIDPENGDTVYDPKFQGKATITADTSSNTAYLQLGSLTSEDTAVYFCSTLDFWGQGTTLTVSS
VL: not shown
notes: Hybridoma-derived mouse antibody; also called m3D6; mouse 3D6
Broadly, the IC50 is the concentration needed to halve the response being measured. In general, Kd refers to the concentration at which binding is half-saturated. The term koff denotes a measure of how fast the partners let go of each other. The term kon denotes the second-order rate constant of association. In the case of B1, the IC50 in test [1] worked out at 0.409 nM. Further, the binding result (with 235-249; in [2]; in the test with 253-267; in the test with 1-15* (free N-term); with 145-159; with 208-222) was “no binding” each time. For the same molecule, the binding result was “no binding” with 369-383 (free C-term); “no binding” with 118-132; “no binding” with 325-339; “no binding” with 136-150; “binds” in [3]; “binds” in test [4]. Besides, the binding result in [5] is reported as “binds”. In addition, in the test with recombinant human tau, the Kd is 0.46 nM. Also, in the test with recombinant human tau, the koff is 0.00119 s⁻¹. Further, the association rate constant (kon) with recombinant human tau was 2.58e+06 M⁻¹ s⁻¹.
